Numbering of substitutions follows the chain as printed. Names and notes keep the numbering of the source.
T1: human adenylosuccinate lyase (ASL), wild type, His-tag (human, UniProt P30566 1-481)
T1 sequence: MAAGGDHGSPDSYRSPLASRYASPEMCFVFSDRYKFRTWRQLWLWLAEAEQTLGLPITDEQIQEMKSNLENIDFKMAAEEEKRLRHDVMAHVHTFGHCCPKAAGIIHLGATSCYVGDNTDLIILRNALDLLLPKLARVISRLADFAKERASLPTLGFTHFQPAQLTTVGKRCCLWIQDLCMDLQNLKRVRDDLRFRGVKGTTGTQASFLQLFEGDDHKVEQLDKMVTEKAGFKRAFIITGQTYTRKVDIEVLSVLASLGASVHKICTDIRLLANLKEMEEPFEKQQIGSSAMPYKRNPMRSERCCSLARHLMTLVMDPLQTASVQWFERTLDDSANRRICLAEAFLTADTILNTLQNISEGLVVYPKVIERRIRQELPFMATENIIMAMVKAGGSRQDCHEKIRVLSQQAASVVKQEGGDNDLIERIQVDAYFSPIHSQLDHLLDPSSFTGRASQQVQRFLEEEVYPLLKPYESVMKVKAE

T2: human adenylosuccinate lyase (ASL) L311V, His-tag (human, UniProt P30566 1-481, L311V)
T2 sequence: T1 sequence with L311V

B1: human adenylosuccinate lyase (ASL) R396H, non-His-tag (enzyme)
chain: T1 sequence with R396H
B2: human adenylosuccinate lyase (ASL), wild type, non-His-tag (enzyme)
chain: T1 sequence

Legend:
[1] = target: T1, human adenylosuccinate lyase (ASL), …; experiment: AUC
[2] = target: T2, human adenylosuccinate lyase (ASL) …; experiment: AUC
AUC [3] = target: the molecule itself; experiment: AUC
[4] = target: T1, human adenylosuccinate lyase (ASL), …; experiment: AUC; remark: listed apart in the source
[5] = target: T2, human adenylosuccinate lyase (ASL) …; experiment: AUC; remark: listed apart in the source
[6] = target: T1, human adenylosuccinate lyase (ASL), …; experiment: in vitro subunit hybridisation with separation on Ni-NTA
[7] = target: T2, human adenylosuccinate lyase (ASL) …; experiment: as above
AUC [8] = target: the molecule itself; experiment: AUC; remark: listed apart in the source

Row | Binder | stoichiometry N [1] | stoichiometry N [2] | stoichiometry N (AUC [3]) | percent tetramer (M-Tet model), pool 2 [4] [%] | percent tetramer (M-Tet model), pool 3 [4] [%] | percent tetramer (M-Tet model), pool 2 [5] [%] | percent tetramer (M-Tet model), pool 3 [5] [%] | subunit ratio (Non-His-tag: His-tag) by SDS-PAGE, pool 2 [6] | subunit ratio (Non-His-tag: His-tag) by SDS-PAGE, pool 3 [6] | subunit ratio (Non-His-tag: His-tag) by SDS-PAGE, pool 2 [7] | subunit ratio (Non-His-tag: His-tag) by SDS-PAGE, pool 3 [7] | percent tetramer (M-Tet model), pool 1 (AUC [8]) [%]
1 | B1 | 4 | 4 | 4 | 73 | 72 | 74 | 74 | 1.1 non-His-tag per His-tag subunit | 1.6 His-tag per non-His-tag subunit | 1.8 non-His-tag per His-tag subunit | 1 non-His-tag per His-tag subunit | –
2 | B2 | – | – | – | 73 | 75 | – | – | 1.3 non-His-tag per His-tag subunit | 3.7 His-tag per non-His-tag subunit | – | – | 68

Reference: article PMC3043148 (Biochemistry, 2011)
